Test results published in patent US20200317769A1 (published 2020).
Where a chain is given by its changes, count along the chain named. Names and notes keep the numbering of the source. Where two headings read alike, the source gives them in different places.

B1: Q62E10 (VHH, not shown: small tags and cut ends)
VHH: QVQLVESGGGLVQPGGSLRLSCTTSGLDFGIHWMYWFRQAPGKELEWVAEINTNALITKYADSVKGRFTISRDNAKNTLFLQMNDLKSEDTAVYYCSNTQNGAAKGQGVQVTVSS
notes: Family 2; purified from E. coli
B2: Q65A3 (VHH, not shown: small tags and cut ends)
VHH: B1 VHH with Q1E, L20P
notes: as for B1
B3: Q65B1 (VHH, not shown: small tags and cut ends)
VHH: EVQLVESGGGLVQPGGSLKLSCAASGFDFSSHWMYWVRQAPGKELEWLSEINTNGLITKYGDSVKGRFTVSRNNAANKMYLELTRLEPEDTALYYCARNQKGLNKGQGTQVTVSS
notes: Family 1; purified from E. coli; parent of the ID series
B4: ID13F-EV (VHH)
VHH: B3 VHH with K101H
notes: Q65B1 monomer mutant with His-tag; not shown: C-terminal His-tag (c-myc-6His or Flag-6His)
B5: ID34F (VHH)
VHH: B3 VHH with K59H, K101H
B6: ID8F-EV (VHH, not shown: small tags and cut ends)
VHH: B3 VHH with K59H
B7: ID15F-EV (VHH)
VHH: B3 VHH with K101H, K105H
notes: as for B4
B8: ID38F (VHH)
VHH: B3 VHH with E1D, K59H, K101H
notes: Q65B1 with N-terminal DVQLV, K59H and K101H; no His-tag; also called ID38F (S. cerevisiae-produced)
B9: ID9F-EV (VHH)
VHH: B3 VHH with K65H
notes: as for B4
B10: Q62F11 (VHH, not shown: small tags and cut ends)
VHH: QVQLVESGGGLVQPGGSLRLSCAASGFSFSDYVMGWFRQAPGKEREFVGFIRWDGLVTRYADAVKGRFTISRDNARNTLSLQTIGLLAEDTAVYYCAASGGGSGPVNAGSYEYWGQGTQVTVSS
notes: Neither Family 1 nor Family 2; purified from E. coli
B11: Q65E12 (VHH, not shown: small tags and cut ends)
VHH: EVQLVESGGGLVQPGGSLRLSCSASGFDFSIHWMYWVRQAPGKELEWVAEINTNGLITLYADSVKGRFTASRDNAKNALFLQMNDLKFEDTAVYYCAKSRNGAAGGQGTQVTVSS
notes: as for B1
B12: Q65F6 (VHH, not shown: small tags and cut ends)
VHH: B11 VHH with S23T, S30G, A61S, K65R, K76N, G105K
notes: as for B1
B13: ID22F (VHH)
chain: EVQLVESGGGLVQPGGSLKLSCAASGFDFSSHWMYWVRQAPGKELEWLSEINTNGLITKYGDSVKGRFTVSRNNAANKMYLELTRLEPEDTALYYCARNQKGLNKGQGTQVTVSSGGGGSGGGGSGGGGSGGGGSGGGGSGGGGSEVQLVESGGGLVQPGGSLKLSCAASGFDFSSHWMYWVRQAPGKELEWLSEINTNGLITKYGDSVKGRFTVSRNNAANKMYLELTRLEPEDTALYYCARNQKGLNKGQGTQVTVSS
B14: Q65C7 (VHH, not shown: small tags and cut ends)
VHH: EVQLVESGGGLVQPGRSLRLSCTASGFDFSSHWMYWVRQAPGKGLEWVSEINTNGLITKYADFVKGRFTVSRDNAANTLYLEITRLEPEDTALYYCARNQKGLNKGQGTQVTVSS
notes: Family 1; purified from E. coli
B15: Q65D1 (VHH, not shown: small tags and cut ends)
VHH: B14 VHH with R16G, S30D, S31N, Y35C, E82Q, E87K
notes: as for B14
B16: Q65D3 (VHH, not shown: small tags and cut ends)
VHH: B14 VHH with R16G, T23V, F63S, V64T, T78M, Y80N, I83M, R85S, Q100E, K101R
notes: as for B14
B17: Q62F2 (VHH, not shown: small tags and cut ends)
VHH: B14 VHH with E1Q, R16G, T23A, S30N, K59N, A61V, F63S, I83M, R85S, E87K
notes: as for B14
B18: Q62F10 (VHH, not shown: small tags and cut ends)
VHH: EVQLVESGGGLVQPGGSLRLSCVASGFDFNIHWMYWVRQAPGKELEWVAEINTNGLITVYPDSVKGRFTISRDNAKNTLFLQMNNLKFEDTAVYYCTNTQNGKTKGQGTQVTVSS
notes: as for B1

What was measured:
[1] = target: T1, non-cleavable transmembrane form of human TNF-alpha on CHO cells (mTNF-alpha-CHO) (human, UniProt P01375 1-233); experiment: cell-based or functional assay
soluble human TNF-alpha [2] = target: T2, soluble human TNF-alpha (human, UniProt P01375 77-233); experiment: cell-based or functional assay
[3] = target: T3, soluble cynomolgus monkey TNF-alpha (cynomolgus monkey, UniProt P79337 77-233); experiment: cell-based or functional assay
[4] = target: T3, soluble cynomolgus monkey TNF-alpha; experiment: competition ELISA: VHH mixed with cynomolgus TNF-alpha, binding to coated etanercept (TNFR2-Fc)
Description: (§1) Variable domains were diluted and mixed with either human or cynomolgus monkey TNF-alpha (1.25 ng/ml) to allow binding before adding to the ELISA plates.

soluble human TNF-alpha [5] = target: T2, soluble human TNF-alpha; experiment: competition ELISA: VHH mixed with human TNF-alpha, binding to coated etanercept (TNFR2-Fc)
Description: as §1

[6] = target: T1, non-cleavable transmembrane form of …; experiment: cell-based or functional assay; remark: listed apart in the source
soluble human TNF-alpha [7] = target: T2, soluble human TNF-alpha; experiment: cell-based or functional assay; remark: listed apart in the source
[8] = target: T3, soluble cynomolgus monkey TNF-alpha; experiment: cell-based or functional assay; remark: listed apart in the source
[9] = target: T1, non-cleavable transmembrane form of …; experiment: cell-based or functional assay; remark: listed apart in the source
soluble human TNF-alpha [10] = target: T2, soluble human TNF-alpha; experiment: cell-based or functional assay; remark: listed apart in the source
soluble human TNF-alpha [11] = target: T2, soluble human TNF-alpha; experiment: competition ELISA: VHH mixed with h-TNF-alpha, binding to coated etanercept
soluble human TNF-alpha [12] = target: T2, soluble human TNF-alpha; experiment: competition ELISA: VHH mixed with TNF-alpha 2.5 ng/ml, binding to coated hTNFR1
Description: Plate was washed in PBST using a plate washer and blocked for 1 hour in 200 ul 1% BSA per well. A threefold dilution series beginning at 30 nM for each antibody was incubated with 2.5 ng/ml TNF-alpha for 1 hour, 50 ul/well of which was then added to the washed plate and incubated for 5 hours. The plate was washed and incubated with 50 ul/well of a 1/1000 dilution of biotinylated rabbit alpha-hTNF (Peprotech P31AB7) in 1% BSA and incubated overnight at 4 degrees C. The plate was washed and incubated with 50 ul/well of a 1/1000 dilution of mAvidin HRP in 1% BSA for 1 hour before a final wash and incubation with 100 ul/well TMB substrate. The reaction was stopped after 20 minutes with 50 ul/well 0.5 M H2504 and absorbance was read at 450 nm. EC50 values were calculated from ELISA data in GraphPad Prism.

soluble human TNF-alpha [13] = target: T2, soluble human TNF-alpha; experiment: cell-based or functional assay; remark: listed apart in the source

T1 sequence (P01375 whole entry): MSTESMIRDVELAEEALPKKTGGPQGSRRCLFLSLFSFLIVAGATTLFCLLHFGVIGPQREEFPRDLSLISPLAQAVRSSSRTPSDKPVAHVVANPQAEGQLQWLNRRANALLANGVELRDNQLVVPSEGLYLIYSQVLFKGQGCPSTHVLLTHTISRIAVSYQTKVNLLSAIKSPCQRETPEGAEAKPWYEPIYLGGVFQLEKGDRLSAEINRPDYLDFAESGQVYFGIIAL
T2 sequence (P01375 77-233 limits assumed): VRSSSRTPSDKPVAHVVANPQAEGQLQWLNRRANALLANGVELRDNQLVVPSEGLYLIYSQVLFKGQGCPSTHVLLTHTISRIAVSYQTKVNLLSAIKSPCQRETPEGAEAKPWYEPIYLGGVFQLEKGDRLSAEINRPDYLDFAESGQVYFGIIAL
T3 sequence (P79337 77-233 limits assumed): as the sequence (P01375 77-233 limits assumed) above, with L37V, R44T, T72N, R138L counted along it

| Binder | EC50 [4] | EC50 (soluble human TNF-alpha [5]) | Inhibition of mTNF-alpha-induced HEK-NF-kB SEAP Reporter (EC50 = nM) [6] | Inhibition of human TNF-induced L929 cell cytotoxicity EC50 (soluble human TNF-alpha [7]) | Inhibition of cynomolgus TNF-induced L929 cell cytotoxicity EC50 [8] | further results |
| --- | --- | --- | --- | --- | --- | --- |
| B1 | 1.2 nM | 0.8 nM |  |  |  | Inhibition of mTNF-alpha-induced HEK-NF-kB SEAP Reporter (EC50 = nM) [1]: 80 nM; Inhibition of human TNF-induced L929 cell cytotoxicity EC50 (soluble human TNF-alpha [2]): 0.2 nM; Inhibition of cynomolgus TNF-induced L929 cell cytotoxicity EC50 [3]: < 0.1 nM |
| B2 | 1.1 nM | 1.3 nM | 23.9 nM | 0.15 nM | 0.04 nM |  |
| B3 | 0.45 nM | 0.29 nM | 10.9 nM | 0.04 nM | 0.01 nM | mTNF-alpha neutralisation EC50 (nM), NF-kB/SEAP HEK-293 cellular reporter assay [9]: 8.72 nM; EC50, HEK-293 NF-kB/SEAP reporter cells, human soluble TNF-alpha (soluble human TNF-alpha [10]): ~0.2 nM |
| B4 |  |  |  |  |  | binding result (soluble human TNF-alpha [11]): binds |
| B5 |  |  |  |  |  | mTNF-alpha neutralisation EC50 (nM), NF-kB/SEAP HEK-293 cellular reporter assay [9]: 4.71 nM |
| B6 |  |  |  |  |  | mTNF-alpha neutralisation EC50 (nM), NF-kB/SEAP HEK-293 cellular reporter assay [9]: 7.69 nM |
| B7 |  |  |  |  |  | binding result (soluble human TNF-alpha [11]): binds |
| B8 |  |  |  |  |  | EC50 (soluble human TNF-alpha [12]): 0.61 nM; EC50 (nM), neutralisation of human soluble TNF-alpha-induced cytotoxicity in L929 cells (soluble human TNF-alpha [13]): 0.127 nM; mTNF-alpha neutralisation EC50 (nM), NF-kB/SEAP HEK-293 cellular reporter assay [9]: 5.16 nM |
| B9 |  |  |  |  |  | binding result (soluble human TNF-alpha [11]): binds |
| B10 | 1.4 nM | 2.3 nM |  |  |  | Inhibition of mTNF-alpha-induced HEK-NF-kB SEAP Reporter (EC50 = nM) [1]: 40 nM; Inhibition of human TNF-induced L929 cell cytotoxicity EC50 (soluble human TNF-alpha [2]): 6 nM; Inhibition of cynomolgus TNF-induced L929 cell cytotoxicity EC50 [3]: 1.5 nM |
| B11 | 65 nM | 47 nM | 174 nM | 4 nM | 4 nM |  |
| B12 | 24 nM | 13 nM | 110 nM | 1.5 nM | 1 nM |  |
| B13 |  |  |  |  |  | potency relative to the monomer, soluble TNF-induced HEK293-NF-kB-SEAP reporter assay (soluble human TNF-alpha [10]): ~10 fold |
| B14 | 0.32 nM | 0.35 nM | 14.1 nM | 0.15 nM | 0.03 nM |  |
| B15 | 0.32 nM | 0.37 nM | 15.3 nM | 0.1 nM | 0.06 nM |  |
| B16 | 0.45 nM | 0.33 nM | 16 nM | 0.15 nM | 0.1 nM | EC50, HEK-293 NF-kB/SEAP reporter cells, human soluble TNF-alpha (soluble human TNF-alpha [10]): ~0.6 nM |
| B17 | 1.3 nM | 0.7 nM |  |  |  | Inhibition of mTNF-alpha-induced HEK-NF-kB SEAP Reporter (EC50 = nM) [1]: 34 nM; Inhibition of human TNF-induced L929 cell cytotoxicity EC50 (soluble human TNF-alpha [2]): 1 nM; Inhibition of cynomolgus TNF-induced L929 cell cytotoxicity EC50 [3]: 0.8 nM |
| B18 | 108 nM | 30 nM |  |  |  | Inhibition of human TNF-induced L929 cell cytotoxicity EC50 (soluble human TNF-alpha [2]): 2 nM; Inhibition of cynomolgus TNF-induced L929 cell cytotoxicity EC50 [3]: 1.3 nM |
